Assays:
Settings in all cases: both partners purified
MET567 = molecular target: T1, MET567 (Homo sapiens, UniProt P08581); experiment: SEC; 6 µM Fab and 4 µM MET (3:2 molar ratio) co-incubated 140 minutes at room temperature in 25 mM Tris pH 7.4, 150 mM NaCl; Superdex 200 10/300
T1 construct: MET receptor (HGF/SF receptor), recombinant truncation of the ectodomain with the SEMA and CR domains and no Ig domain; The ectodomain is cut by furin into an alpha and a beta chain; written here as one chain; also called soluble fragment of the MET ectodomain comprising the SEMA and cysteine-rich (CR) domain

MET = molecular target: T2, MET (Homo sapiens, UniProt P08581); experiment: SPR; Biacore; mean of three experiments; 107_A07 Fab purified sequentially on KappaSelect and GammaBind Plus; MET construct and who was immobilised not stated
T2 construct: MET receptor; Further methods are said to stand in the Supplementary Information file

MET928 [1] = molecular target: T3, MET928 (UniProt P08581); experiment: SPR; CM5 chip coated with MET928; 7A2 scFv (134 nM, 268 nM), NK1 (238 nM, 476 nM) or a mixture (134 nM 7A2 scFv, 238 nM NK1); 60 s injections
T3 construct: MET receptor (HGF/SF receptor), recombinant ectodomain with the SEMA, CR and Ig1-4 domains; The ectodomain is cut by furin into an alpha and a beta chain; written here as one chain; also called MET extracellular domain (MET928); His-tagged MET928; source: recombinant

MET928 [2] = molecular target: T3, MET928; experiment: SEC; 6 µM Fab and 4 µM MET (3:2 molar ratio) co-incubated 140 minutes at room temperature in 25 mM Tris pH 7.4, 150 mM NaCl; Superdex 200 10/300
MET741 = molecular target: T4, MET741 (Homo sapiens, UniProt P08581); experiment: as above
T4 construct: MET receptor (HGF/SF receptor), recombinant truncation of the ectodomain with the SEMA, CR and Ig1-2 domains; The ectodomain is cut by furin into an alpha and a beta chain; written here as one chain; also called soluble MET741; his-tagged MET741; source: CHO Lec3.2.8.1 cells, purified (NiNTA, cation exchange MonoS)
T4 sequence (P08581 25-741): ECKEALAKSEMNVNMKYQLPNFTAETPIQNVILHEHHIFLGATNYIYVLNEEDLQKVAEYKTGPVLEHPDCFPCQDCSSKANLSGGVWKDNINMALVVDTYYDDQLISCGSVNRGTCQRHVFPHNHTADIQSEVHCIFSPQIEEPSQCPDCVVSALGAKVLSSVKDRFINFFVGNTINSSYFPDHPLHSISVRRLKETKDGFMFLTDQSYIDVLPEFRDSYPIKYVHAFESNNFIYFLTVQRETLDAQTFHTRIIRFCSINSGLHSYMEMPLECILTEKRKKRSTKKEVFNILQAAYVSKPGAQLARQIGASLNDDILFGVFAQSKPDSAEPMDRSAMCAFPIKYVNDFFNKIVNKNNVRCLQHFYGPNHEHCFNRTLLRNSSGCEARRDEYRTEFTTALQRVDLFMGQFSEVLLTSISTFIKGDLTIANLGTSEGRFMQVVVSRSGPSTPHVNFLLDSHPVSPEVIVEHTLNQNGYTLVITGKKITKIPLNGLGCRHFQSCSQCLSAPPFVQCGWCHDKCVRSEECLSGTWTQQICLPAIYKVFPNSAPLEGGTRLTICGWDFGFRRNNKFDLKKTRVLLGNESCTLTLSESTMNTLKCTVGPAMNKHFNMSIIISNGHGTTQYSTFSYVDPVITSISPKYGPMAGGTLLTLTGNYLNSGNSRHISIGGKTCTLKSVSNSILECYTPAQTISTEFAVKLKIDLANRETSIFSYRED

T3 sequence (P08581 25-932): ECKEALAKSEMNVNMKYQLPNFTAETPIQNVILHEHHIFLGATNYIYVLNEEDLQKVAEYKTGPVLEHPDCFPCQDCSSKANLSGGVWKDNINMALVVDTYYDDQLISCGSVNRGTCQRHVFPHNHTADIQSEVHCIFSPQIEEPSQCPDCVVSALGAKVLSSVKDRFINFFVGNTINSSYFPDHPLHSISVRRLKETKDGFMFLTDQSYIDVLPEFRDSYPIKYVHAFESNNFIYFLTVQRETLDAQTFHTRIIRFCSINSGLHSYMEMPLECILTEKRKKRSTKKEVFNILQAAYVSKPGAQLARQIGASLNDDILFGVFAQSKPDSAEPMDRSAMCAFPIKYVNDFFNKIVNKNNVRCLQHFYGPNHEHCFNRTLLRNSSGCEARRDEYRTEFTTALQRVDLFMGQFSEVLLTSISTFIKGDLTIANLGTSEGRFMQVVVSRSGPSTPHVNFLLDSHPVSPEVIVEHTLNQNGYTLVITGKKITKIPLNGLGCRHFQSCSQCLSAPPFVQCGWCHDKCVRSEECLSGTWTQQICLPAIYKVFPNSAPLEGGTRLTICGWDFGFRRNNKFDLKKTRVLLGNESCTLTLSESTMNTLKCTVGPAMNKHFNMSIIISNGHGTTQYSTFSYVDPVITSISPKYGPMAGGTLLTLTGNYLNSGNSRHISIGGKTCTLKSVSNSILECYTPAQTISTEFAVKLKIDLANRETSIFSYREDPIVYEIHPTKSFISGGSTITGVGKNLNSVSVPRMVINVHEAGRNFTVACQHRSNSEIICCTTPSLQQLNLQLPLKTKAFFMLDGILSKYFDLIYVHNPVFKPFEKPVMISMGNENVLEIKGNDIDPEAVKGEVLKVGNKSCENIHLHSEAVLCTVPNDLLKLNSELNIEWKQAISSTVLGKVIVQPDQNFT
T1 sequence (P08581 39-564): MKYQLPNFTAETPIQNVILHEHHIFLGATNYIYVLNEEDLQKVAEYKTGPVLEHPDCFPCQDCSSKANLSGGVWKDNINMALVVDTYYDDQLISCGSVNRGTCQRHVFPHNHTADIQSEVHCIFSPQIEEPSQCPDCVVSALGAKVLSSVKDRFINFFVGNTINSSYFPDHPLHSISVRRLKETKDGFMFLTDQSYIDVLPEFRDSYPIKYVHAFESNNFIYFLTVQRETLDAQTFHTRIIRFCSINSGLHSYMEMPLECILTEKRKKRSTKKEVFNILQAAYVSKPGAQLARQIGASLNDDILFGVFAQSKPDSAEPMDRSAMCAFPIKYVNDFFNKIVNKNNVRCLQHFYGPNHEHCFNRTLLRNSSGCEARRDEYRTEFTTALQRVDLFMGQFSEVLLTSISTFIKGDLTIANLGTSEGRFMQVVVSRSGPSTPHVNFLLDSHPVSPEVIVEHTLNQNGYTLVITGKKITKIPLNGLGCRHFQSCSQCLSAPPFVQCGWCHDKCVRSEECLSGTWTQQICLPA
T2 sequence (P08581 25-1390): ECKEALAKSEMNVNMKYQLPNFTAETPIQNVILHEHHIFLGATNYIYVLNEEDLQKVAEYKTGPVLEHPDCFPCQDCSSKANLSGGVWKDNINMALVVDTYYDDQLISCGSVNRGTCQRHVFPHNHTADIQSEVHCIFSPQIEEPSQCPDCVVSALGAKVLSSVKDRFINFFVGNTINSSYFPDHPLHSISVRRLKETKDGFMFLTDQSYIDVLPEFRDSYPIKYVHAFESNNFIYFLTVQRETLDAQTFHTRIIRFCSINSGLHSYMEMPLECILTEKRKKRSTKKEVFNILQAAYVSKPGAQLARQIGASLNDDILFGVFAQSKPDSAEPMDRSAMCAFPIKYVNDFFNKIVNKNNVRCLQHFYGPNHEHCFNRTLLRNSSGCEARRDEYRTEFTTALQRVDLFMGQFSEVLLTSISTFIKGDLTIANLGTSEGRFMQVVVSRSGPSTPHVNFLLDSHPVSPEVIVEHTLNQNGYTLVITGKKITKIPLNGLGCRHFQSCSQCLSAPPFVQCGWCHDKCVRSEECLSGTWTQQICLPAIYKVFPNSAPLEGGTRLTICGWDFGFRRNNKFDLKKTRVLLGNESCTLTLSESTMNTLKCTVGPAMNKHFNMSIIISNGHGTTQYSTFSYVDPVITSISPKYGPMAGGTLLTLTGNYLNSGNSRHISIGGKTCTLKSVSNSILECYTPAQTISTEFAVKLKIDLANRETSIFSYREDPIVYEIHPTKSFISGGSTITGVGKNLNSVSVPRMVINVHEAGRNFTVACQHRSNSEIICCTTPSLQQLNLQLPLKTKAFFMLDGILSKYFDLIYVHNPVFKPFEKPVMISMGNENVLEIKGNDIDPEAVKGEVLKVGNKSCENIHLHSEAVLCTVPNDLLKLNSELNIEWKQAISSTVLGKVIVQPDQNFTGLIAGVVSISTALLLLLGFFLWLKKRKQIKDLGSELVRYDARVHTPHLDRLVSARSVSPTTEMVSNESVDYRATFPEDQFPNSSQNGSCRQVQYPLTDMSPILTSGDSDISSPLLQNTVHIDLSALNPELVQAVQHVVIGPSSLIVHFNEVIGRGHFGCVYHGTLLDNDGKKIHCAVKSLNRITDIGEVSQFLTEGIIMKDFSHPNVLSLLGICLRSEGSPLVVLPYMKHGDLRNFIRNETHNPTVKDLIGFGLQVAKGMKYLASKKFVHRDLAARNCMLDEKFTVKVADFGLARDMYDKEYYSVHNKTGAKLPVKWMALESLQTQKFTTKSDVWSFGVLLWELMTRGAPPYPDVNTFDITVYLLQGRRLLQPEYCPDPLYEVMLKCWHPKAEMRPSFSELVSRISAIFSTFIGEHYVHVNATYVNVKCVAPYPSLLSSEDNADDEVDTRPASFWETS

| Binder | binding result (MET567) | Kd (MET) [nM] | binding result (MET928 [1]) | binding result (MET928 [2]) | binding result (MET741) |
| --- | --- | --- | --- | --- | --- |
| 107_A07 Fab (Fab, V domains shown, Fab heavy chain is chain H of the deposited structure PDB 5LSP; Fab light chain is chain L of the deposited structure PDB 5LSP) VH: QMQLVQSGAEVKKPGAPVKVSCKVSGYTFTDYYMHWVQQAPGKGLEWMGLVDPEDGETIYAEKFQGRVTITADTSTDTAYMELSSLRSEDTAVYYCATDATTPYWGMMWWGQGTLVTVSS VL: DIQMIQSPSSLSASVGDRVTITCQASQDISNYLNWYQQKPGRAPKVLIYDASNLETGVPSRFSGSGSGTEFTLTISNLRPDDFATYYCQQGDSFPLTFGGGTKVEIK | no binding (tested: 6 µM Fab, 4 µM MET567) | 3.2 | – | – | – |
| 7A2 scFv (scFv, V domains shown, VH of 7A2: as the VH of m1 (PDB 5LSP chain H) except in CDR3, where 7A2 has Y105 instead of W105; VL of 7A2: as the VL of m1 (PDB 5LSP chain L); also called clone 7A2; source: Pichia pastoris, purified (Ni-NTA, gel filtration)) VH: QMQLVQSGAEVKKPGAPVKVSCKVSGYTFTDYYMHWVQQAPGKGLEWMGLVDPEDGETIYAEKFQGRVTITADTSTDTAYMELSSLRSEDTAVYYCATDATTPYYGMDVWGQGTLVTVSS VL: DIQMTQSPSSLSASVGDRVTITCQASQDISNYLNWYQQKPGRAPKVLIYDASNLETGVPSRFSGSGSGTEFTLTISNLRPDDFATYYCQQGDSFPLTFGGGTKVEIK | – | – | binds | – | – |
| 7A2 Fab (Fab, V domains shown, as the light chain of m1 (PDB 5LSP chain L): the matured clones came from VH CDR3 mutagenesis and VL mutants were not identified; also called Fab 7A2; Fab-formatted 7A2) VH: QMQLVQSGAEVKKPGAPVKVSCKVSGYTFTDYYMHWVQQAPGKGLEWMGLVDPEDGETIYAEKFQGRVTITADTSTDTAYMELSSLRSEDTAVYYCATDATTPYYGMDVWGQGTLVTVSS VL: DIQMTQSPSSLSASVGDRVTITCQASQDISNYLNWYQQKPGRAPKVLIYDASNLETGVPSRFSGSGSGTEFTLTISNLRPDDFATYYCQQGDSFPLTFGGGTKVEIK | no binding (tested: 6 µM Fab, 4 µM MET567) | – | – | binds | binds |
